{"source": "patent US20240092926A1", "about": "(ONCORESPONSE, published 2024)", "key": {"[1]": {"target": "T1, His-tagged recombinant human CD163 (R&D Systems, No. 1607-CD-050) (human, UniProt Q86VB7 46-1050, limits assumed)", "T1 construct": "Bought protein; also called recombinant CD163 protein; huCD163; not shown: His tag", "T1 sequence (Q86VB7 46-1050 limits assumed)": "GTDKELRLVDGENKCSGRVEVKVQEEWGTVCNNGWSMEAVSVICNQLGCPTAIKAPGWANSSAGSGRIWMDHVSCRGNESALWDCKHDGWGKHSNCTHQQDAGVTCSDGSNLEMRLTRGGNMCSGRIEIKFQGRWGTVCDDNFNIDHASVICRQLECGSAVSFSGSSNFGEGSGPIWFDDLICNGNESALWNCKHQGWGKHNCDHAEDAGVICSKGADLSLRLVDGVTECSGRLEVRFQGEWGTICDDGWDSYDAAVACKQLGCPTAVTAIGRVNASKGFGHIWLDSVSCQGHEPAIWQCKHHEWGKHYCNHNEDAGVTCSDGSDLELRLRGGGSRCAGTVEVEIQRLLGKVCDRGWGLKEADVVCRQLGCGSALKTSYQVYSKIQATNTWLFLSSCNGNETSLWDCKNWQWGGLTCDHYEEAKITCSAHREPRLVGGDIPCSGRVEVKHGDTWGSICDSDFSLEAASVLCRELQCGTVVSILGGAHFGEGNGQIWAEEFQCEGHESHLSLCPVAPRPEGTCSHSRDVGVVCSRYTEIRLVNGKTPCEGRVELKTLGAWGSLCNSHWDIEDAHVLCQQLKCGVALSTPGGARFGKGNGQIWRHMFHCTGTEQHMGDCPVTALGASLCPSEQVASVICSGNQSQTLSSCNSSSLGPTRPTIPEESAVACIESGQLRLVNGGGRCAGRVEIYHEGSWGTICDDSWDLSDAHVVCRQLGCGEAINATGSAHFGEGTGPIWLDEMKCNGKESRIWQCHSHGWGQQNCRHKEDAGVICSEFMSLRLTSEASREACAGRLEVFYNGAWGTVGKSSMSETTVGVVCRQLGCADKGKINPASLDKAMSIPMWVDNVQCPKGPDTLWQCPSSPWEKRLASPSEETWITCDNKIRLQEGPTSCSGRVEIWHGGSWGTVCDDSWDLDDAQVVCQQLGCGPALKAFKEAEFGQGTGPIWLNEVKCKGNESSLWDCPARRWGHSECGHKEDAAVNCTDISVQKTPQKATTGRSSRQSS", "assay": "ELISA, His-tagged recombinant human CD163 coated at 5 µg/mL", "method": "(§1) CD163 variant antibody binding to His-tagged recombinant human CD163 (R&D Systems, No. 1607-CD-050) protein was determined using ELISA. Recombinant protein was diluted in PBS to 5 μg/mL and added to 384-well high-binding ELISA plates (Greiner Bio-One, No. 781061) at 25 μL per well and incubated at 4° C. overnight. The plates were washed three times with PBS, using a BioTek ELx405 Select microplate washer (wash program ELISA_384_PBS_3×_wash) and then blocked with 90 μL/well of blocking buffer (2% nonfat, dry milk/PBS+0.05% Tween 20) for 1 hour at RT.\n(§2) After blocking, 25 μL per well of primary antibodies were added to the plates and incubated for 1 hour at RT. […] After primary antibody binding, plates were washed three times with PBS using the EL405× (wash program ELISA_384_PBS 3×_wash). The secondary antibody was a goat anti-human IgG F(ab′)₂ HRP (Jackson Immunoresearch, No. 109-035-097). Secondary antibody was diluted to 1:2500 in 2% nonfat, dry milk/PBS, and 25 μL per well was added to the wells and incubated at RT for 1 hour. The plates were washed four times with PBS, using the EL405× (wash program ELISA_384_PBS_4× wash). After removal of the final wash, 25 μL/well of neat I-Step™ Ultra TMB-ELISA Substrate Solution (ThermoFisher, No. 34028) was added and the plates were incubated for 10-15 minutes at RT protected from light. After development, the reaction was stopped by adding 25 μL per well of 0.3 M HCl and plates were read using a SpectraMax M5e instrument at 450 nm."}, "[2]": {"target": "T1, His-tagged recombinant human CD163 (R&D …)", "assay": "ELISA, His-tagged recombinant human CD163 coated; ratio of EC50 against AB101", "method": "as §1\nas §2, with “After removal of the final wash, 25 μL/well of neat I-Step™ Ultra TMB-ELISA Substrate Solution (ThermoFisher, No. 34028) was added and the plates were incubated for 10-15 minutes at RT protected from light.” left out"}, "[3]": {"target": "T2, Biotin-labeled human CD163 (human, UniProt Q86VB7 42-1050, limits assumed, biotin-labeled (sites not given))", "T2 construct": "Biotinylated form of the human CD163 antigen, immobilised on SA biosensors for BLI; also called b-huCD163; Human CD163 Protein (biotinylated)", "T2 sequence (Q86VB7 42-1050 limits assumed)": "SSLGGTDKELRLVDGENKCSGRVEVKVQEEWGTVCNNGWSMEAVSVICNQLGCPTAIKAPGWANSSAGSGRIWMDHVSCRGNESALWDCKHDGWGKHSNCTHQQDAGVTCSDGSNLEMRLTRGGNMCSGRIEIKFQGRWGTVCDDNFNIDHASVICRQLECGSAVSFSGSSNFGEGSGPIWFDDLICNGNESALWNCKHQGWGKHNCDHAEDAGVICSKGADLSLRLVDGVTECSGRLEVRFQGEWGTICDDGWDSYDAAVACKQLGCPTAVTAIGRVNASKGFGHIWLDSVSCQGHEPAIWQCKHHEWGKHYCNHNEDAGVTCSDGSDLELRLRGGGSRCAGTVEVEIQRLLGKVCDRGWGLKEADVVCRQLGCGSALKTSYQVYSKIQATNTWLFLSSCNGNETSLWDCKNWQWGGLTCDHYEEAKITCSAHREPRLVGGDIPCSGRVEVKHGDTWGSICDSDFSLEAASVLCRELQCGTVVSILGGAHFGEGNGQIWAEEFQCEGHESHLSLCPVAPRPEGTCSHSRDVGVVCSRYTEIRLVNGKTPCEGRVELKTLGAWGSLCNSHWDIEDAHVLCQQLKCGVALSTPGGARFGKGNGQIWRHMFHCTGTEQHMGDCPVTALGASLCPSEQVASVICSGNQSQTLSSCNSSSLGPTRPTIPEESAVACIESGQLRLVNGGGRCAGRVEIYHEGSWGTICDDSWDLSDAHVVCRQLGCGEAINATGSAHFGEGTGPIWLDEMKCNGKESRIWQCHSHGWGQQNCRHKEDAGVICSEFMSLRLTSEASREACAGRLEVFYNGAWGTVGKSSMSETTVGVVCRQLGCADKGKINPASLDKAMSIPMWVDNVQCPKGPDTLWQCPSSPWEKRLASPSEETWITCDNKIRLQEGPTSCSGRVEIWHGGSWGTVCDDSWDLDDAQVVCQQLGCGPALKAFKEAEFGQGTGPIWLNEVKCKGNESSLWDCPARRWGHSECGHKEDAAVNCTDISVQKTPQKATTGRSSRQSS", "assay": "BLI (Octet RED96), b-huCD163 on SA biosensor, one Ab concentration 50.0 nM"}, "[4]": {"target": "T1, His-tagged recombinant human CD163 (R&D …)", "assay": "ELISA, plate coated with His-tagged recombinant human CD163 at 5 µg/mL, detection with anti-human IgG F(ab')2-HRP, A450; log axis in nM", "method": "as §1, §2"}, "[5]": {"target": "T2, Biotin-labeled human CD163", "assay": "BLI (Octet RED96), b-huCD163 on SA biosensor, Ab at 6.25/12.5/25/50 nM", "method": "The SA sensors were placed in the PBS buffer for 15 minutes. Different solutions were added to a 96-well plate according to the following orders, with 200 μL per well."}, "[6]": {"target": "T2, Biotin-labeled human CD163", "assay": "BLI (Octet RED96), b-huCD163 on SA biosensor, ratio of KD against AB101 parental Ab"}, "[7]": {"target": "T1, His-tagged recombinant human CD163 (R&D …)", "assay": "ratio of the KD values of Table 6 (AB101 parental Ab KD over clone 4 KD); the method is not shown in the excerpt"}, "[8]": {"target": "T3, human CD163 expressed on cells (SU-DHL-1 lymphoma cells, M2c macrophages, monocytes and dendritic cells of … (human, UniProt Q86VB7 42-1114))", "T3 sequence (Q86VB7 other isoform, or with tags, fused parts or gaps limits assumed)": "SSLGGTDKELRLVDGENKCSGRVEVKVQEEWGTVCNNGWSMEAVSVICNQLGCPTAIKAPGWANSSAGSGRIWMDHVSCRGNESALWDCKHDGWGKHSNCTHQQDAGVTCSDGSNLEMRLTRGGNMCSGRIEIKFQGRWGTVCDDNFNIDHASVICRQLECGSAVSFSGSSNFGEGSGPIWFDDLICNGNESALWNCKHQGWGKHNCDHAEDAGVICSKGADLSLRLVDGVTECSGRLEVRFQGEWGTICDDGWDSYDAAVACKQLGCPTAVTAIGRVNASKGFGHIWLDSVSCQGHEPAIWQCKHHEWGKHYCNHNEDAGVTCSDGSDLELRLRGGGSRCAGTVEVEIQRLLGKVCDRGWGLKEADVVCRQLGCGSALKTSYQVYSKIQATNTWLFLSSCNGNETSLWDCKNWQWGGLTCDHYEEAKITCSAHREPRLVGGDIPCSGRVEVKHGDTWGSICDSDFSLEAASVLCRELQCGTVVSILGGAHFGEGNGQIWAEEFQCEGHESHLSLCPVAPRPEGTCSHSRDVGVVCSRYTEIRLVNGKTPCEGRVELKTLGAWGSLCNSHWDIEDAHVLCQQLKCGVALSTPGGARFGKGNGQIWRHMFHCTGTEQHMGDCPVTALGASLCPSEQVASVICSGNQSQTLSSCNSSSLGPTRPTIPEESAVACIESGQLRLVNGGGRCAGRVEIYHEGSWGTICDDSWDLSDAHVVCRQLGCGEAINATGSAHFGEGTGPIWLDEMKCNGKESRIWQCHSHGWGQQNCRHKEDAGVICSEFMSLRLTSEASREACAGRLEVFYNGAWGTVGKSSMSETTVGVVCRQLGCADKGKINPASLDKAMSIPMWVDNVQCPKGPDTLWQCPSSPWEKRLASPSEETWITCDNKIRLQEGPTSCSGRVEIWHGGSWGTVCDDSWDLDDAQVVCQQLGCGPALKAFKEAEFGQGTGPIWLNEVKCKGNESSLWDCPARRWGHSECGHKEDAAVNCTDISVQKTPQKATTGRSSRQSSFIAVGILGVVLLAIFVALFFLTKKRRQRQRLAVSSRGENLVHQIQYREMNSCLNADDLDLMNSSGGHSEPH", "assay": "cell-based or functional assay"}, "[9]": {"target": "T3, human CD163 expressed on cells …", "assay": "cell-based or functional assay", "remark": "listed apart in the source"}, "[10]": {"target": "T3, human CD163 expressed on cells …", "assay": "cell-based or functional assay", "remark": "listed apart in the source"}, "[11]": {"target": "T3, human CD163 expressed on cells …", "assay": "cell-based or functional assay", "remark": "listed apart in the source"}, "[12]": {"target": "T3, human CD163 expressed on cells …", "assay": "flow cytometry on whole blood, DCs, APC-labeled antibody", "method": "(§3) Antibody binding to human immune cell lineage subsets was assessed by flow cytometry. Briefly, whole blood with heparin as an anticoagulant was obtained (Bloodworks Northwest). Fc-receptor blocking reagent was directly added to whole blood to a final concentration of 10% FBS, 0.5 mg/mL human IgG1 and 0.05% NaN₃ in a final sample volume of 400 μL. […] After 30 minutes, red blood cells (RBC) were lysed with RBC lysis buffer, followed by Zombie UV viability staining. Then, cells were washed with FACS buffer (PBS containing 1% FBS, 2 mM EDTA, and 0.05% NaN₃) and resuspended in FACS buffer containing 10% FBS and 10% FcX block. Then, the antibody phenotyping cocktail (Table 8a) was added and incubated at room temperature for 30 minutes in the dark. Cells were washed with FACS buffer and resuspended in FACS buffer data acquisition using a FACSymphony™ Cytometer (BD BioSciences). Analysis was performed using FlowJo software. Populations were identified according to gating parameters as described in Table 8b."}, "[13]": {"target": "T3, human CD163 expressed on cells …", "assay": "flow cytometry on whole blood, classical monocytes, APC-labeled antibody", "method": "as §3"}, "[14]": {"target": "T3, human CD163 expressed on cells …", "assay": "flow cytometry on whole blood, intermediate monocytes, APC-labeled antibody", "method": "as §3"}, "[15]": {"target": "T3, human CD163 expressed on cells …", "assay": "flow cytometry on whole blood, nonclassical monocytes, APC-labeled antibody", "method": "as §3"}}, "data": [{"binder": "Variant 1 (V1) (antibody, V domains shown, The printed VH ends in TVS, one S shorter than the other variants) VH: EVQLVESGGGVVQPGRSLRLSCAASGFTFSSYDMHWVRQAPGKGLEWVAVISEDGSNKYNADSVKGRFTISRDNSKNTLYLQMNSLRAEDTAVYYCARENVRPYYDFWSGYSSEYYYYGLDVWGQGTTVTVS VL: not shown", "values": [{"measurement": "EC50", "setting": "[1]", "value": 1870, "unit": "pM"}, {"measurement": "fold stronger binding than AB101 parental antibody (EC50)", "setting": "[2]", "value": "27 to 45", "unit": "fold"}, {"measurement": "Kd", "setting": "[3]", "value": 1250, "unit": "pM"}, {"measurement": "koff", "setting": "[3]", "value": 0.00112, "unit": "s⁻¹"}, {"measurement": "kon", "setting": "[3]", "value": 895000, "unit": "M⁻¹ s⁻¹"}, {"measurement": "EC50 (read off the curve)", "setting": "[4]", "value": "~2", "unit": "pM"}]}, {"binder": "Variant 4 (V4) (antibody, V domains shown, also called clone 4) VH: EVQLVESGGGVVQPGRSLRLSCAASGFTFSSYVMHWVRQAPGKGLEWVAVISEDGSNKYNADSVKGRFTISRDNSKNTLYLQMNSLRAEDTAVYYCARENVRPYYDFWSGYSSEYYYYGLDVWGQGTTVTVSS VL: not shown", "values": [{"measurement": "EC50", "setting": "[1]", "value": 3050, "unit": "pM"}, {"measurement": "Kd", "setting": "[5]", "value": 176, "unit": "pM"}, {"measurement": "koff", "setting": "[5]", "value": 0.000393, "unit": "s⁻¹"}, {"measurement": "kon", "setting": "[5]", "value": "2.23e+06", "unit": "M⁻¹ s⁻¹"}, {"measurement": "fold stronger binding than AB101 parental antibody (EC50)", "setting": "[2]", "value": "27 to 45", "unit": "fold"}, {"measurement": "Kd", "setting": "[3]", "value": 824, "unit": "pM"}, {"measurement": "koff", "setting": "[3]", "value": 0.000874, "unit": "s⁻¹"}, {"measurement": "kon", "setting": "[3]", "value": "1.06e+06", "unit": "M⁻¹ s⁻¹"}, {"measurement": "Affinity enhancement compared to parental Ab", "setting": "[6]", "value": 3760, "unit": "fold"}, {"measurement": "fold affinity enhancement compared to AB101 parental Ab", "setting": "[7]", "value": "~3760", "unit": "fold"}, {"measurement": "EC50 (read off the curve)", "setting": "[4]", "value": "~3", "unit": "pM"}]}, {"binder": "Variant 6 (V6) (antibody, V domains shown) VH: EVQLVESGGGVVQPGRSLRLSCAASGFTFSSETMHWVRQAPGKGLEWVAVISEDGSNKYNADSVKGRFTISRDNSKNTLYLQMNSLRAEDTAVYYCARENVRPYYDFWSGYSSEYYYYGLDVWGQGTTVTVSS VL: not shown", "values": [{"measurement": "EC50", "setting": "[1]", "value": 2680, "unit": "pM"}, {"measurement": "Kd", "setting": "[3]", "value": 964, "unit": "pM"}, {"measurement": "koff", "setting": "[3]", "value": 0.000887, "unit": "s⁻¹"}, {"measurement": "kon", "setting": "[3]", "value": 921000, "unit": "M⁻¹ s⁻¹"}, {"measurement": "EC50 (read off the curve)", "setting": "[4]", "value": "~3", "unit": "pM"}]}, {"binder": "Variant 3 (V3) (antibody, human IgG1, V domains shown) VH: EVQLVESGGGVVQPGRSLRLSCAASGFTFSSYVMHWVRQAPGKGLEWVAVISEDGSNKYEADSVKGRFTISRDNSKNTLYLQMNSLRAEDTAVYYCARENVRPYYDFWRGYNSEYYYYGLDVWGQGTTVTVSS VL: not shown", "values": [{"measurement": "potency against AB101 in relieving M2c-mediated suppression of IFNγ release", "setting": "[8]", "value": "> 10", "unit": "fold"}, {"measurement": "potency against parental AB101 in relieving M2c-mediated suppression of CD8+ T cell proliferation", "setting": "[8]", "value": "~40", "unit": "fold"}, {"measurement": "potency against parental AB101 in relieving M2c-mediated suppression of perforin secretion", "setting": "[8]", "value": "~100", "unit": "fold"}, {"measurement": "EC50 of antibody-elicited T cell proliferation (M2c/CD8+ T cell coculture)", "setting": "[9]", "value": 270, "unit": "pM"}, {"measurement": "EC50 of antibody-elicited perforin secretion (M2c/CD8+ T cell coculture)", "setting": "[10]", "value": 330, "unit": "pM"}, {"measurement": "EC50 of antibody-elicited IFNγ secretion (M2c/T cell blast coculture)", "setting": "[11]", "value": 470, "unit": "pM"}, {"measurement": "fold increase of geometric MFI compared to AB101", "setting": "[12]", "value": 4.3, "unit": "fold"}, {"measurement": "EC50", "setting": "[1]", "value": 2790, "unit": "pM"}, {"measurement": "fold increase of geometric MFI compared to AB101", "setting": "[13]", "value": 9.8, "unit": "fold"}, {"measurement": "fold increase of geometric MFI compared to AB101", "setting": "[14]", "value": 9.2, "unit": "fold"}, {"measurement": "fold increase of geometric MFI compared to AB101", "setting": "[15]", "value": 3, "unit": "fold"}, {"measurement": "Kd", "setting": "[3]", "value": 937, "unit": "pM"}, {"measurement": "koff", "setting": "[3]", "value": 0.000925, "unit": "s⁻¹"}, {"measurement": "kon", "setting": "[3]", "value": 987000, "unit": "M⁻¹ s⁻¹"}, {"measurement": "EC50 (read off the curve)", "setting": "[4]", "value": "~3", "unit": "pM"}]}, {"binder": "Variant 2 (V2) (antibody, V domains shown) VH: EVQLVESGGGVVQPGRSLRLSCAASGFTFSSETMHWVRQAPGKGLEWVAVISEDGSNKYHADSVKGRFTISRDNSKNTLYLQMNSLRAEDTAVYYCARENVRPYYDFWSGYNSEYYYYGMDVWGQGTTVTVSS VL: DIQMTQSPSSLSASVGDRVTITCRASQSISRYLNWYQQKPGKAPKLLIYAASSLQNGVPSRFSGSGSGTDFTLTISSLQPEDFATYYCQQSYSTTRGSFGQGTKVEIKR", "values": [{"measurement": "EC50", "setting": "[1]", "value": 2230, "unit": "pM"}, {"measurement": "Kd", "setting": "[3]", "value": 991, "unit": "pM"}, {"measurement": "koff", "setting": "[3]", "value": 0.00087, "unit": "s⁻¹"}, {"measurement": "kon", "setting": "[3]", "value": 878000, "unit": "M⁻¹ s⁻¹"}, {"measurement": "EC50 (read off the curve)", "setting": "[4]", "value": "~2", "unit": "pM"}]}, {"binder": "Variant 5 (V5) (antibody, V domains shown) VH: EVQLVESGGGVVQPGRSLRLSCAASGFTFSSYDMHWVRQAPGKGLEWVAVISEDGSNKYNADSVKGRFTISRDNSKNTLYLQMNSLRAEDTAVYYCARENVRPYYDFWRGYNSEYYYYGLDVWGQGTTVTVSS VL: not shown", "values": [{"measurement": "EC50", "setting": "[1]", "value": 2830, "unit": "pM"}, {"measurement": "Kd", "setting": "[3]", "value": 1030, "unit": "pM"}, {"measurement": "koff", "setting": "[3]", "value": 0.000978, "unit": "s⁻¹"}, {"measurement": "kon", "setting": "[3]", "value": 951000, "unit": "M⁻¹ s⁻¹"}, {"measurement": "EC50 (read off the curve)", "setting": "[4]", "value": "~3", "unit": "pM"}]}]}
